Source: doi:10.1101/2020.12.08.416701

Columns and labels:
TβRII ectodomain (human) = TβRII ectodomain (human) (UniProt P37173); test: ITC
TβRI ectodomain (human) [1] = molecular target: TβRI ectodomain (human) (UniProt P36897); test: ITC
[2] = molecular target: biotinylated avi-tagged TβRII (human) (UniProt P37173); test: SPR
[3] = molecular target: biotinylated avi-tagged TβRI (human) (UniProt P36897); test: SPR
TβRI ectodomain (human) [4] = molecular target: TβRI ectodomain (human) (UniProt P36897); test: SEC-MALS

Chain of TβRII ectodomain (human) (P37173 23-166): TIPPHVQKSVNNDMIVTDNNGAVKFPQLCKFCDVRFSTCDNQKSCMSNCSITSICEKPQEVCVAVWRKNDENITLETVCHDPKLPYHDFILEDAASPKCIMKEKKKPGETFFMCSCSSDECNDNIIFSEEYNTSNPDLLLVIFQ
Chain of TβRI ectodomain (human) (P36897 34-126): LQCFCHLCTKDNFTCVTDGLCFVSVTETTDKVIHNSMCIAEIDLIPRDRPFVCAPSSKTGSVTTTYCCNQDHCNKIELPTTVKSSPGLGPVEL
Chain of biotinylated avi-tagged TβRI (human) (P36897 34-503): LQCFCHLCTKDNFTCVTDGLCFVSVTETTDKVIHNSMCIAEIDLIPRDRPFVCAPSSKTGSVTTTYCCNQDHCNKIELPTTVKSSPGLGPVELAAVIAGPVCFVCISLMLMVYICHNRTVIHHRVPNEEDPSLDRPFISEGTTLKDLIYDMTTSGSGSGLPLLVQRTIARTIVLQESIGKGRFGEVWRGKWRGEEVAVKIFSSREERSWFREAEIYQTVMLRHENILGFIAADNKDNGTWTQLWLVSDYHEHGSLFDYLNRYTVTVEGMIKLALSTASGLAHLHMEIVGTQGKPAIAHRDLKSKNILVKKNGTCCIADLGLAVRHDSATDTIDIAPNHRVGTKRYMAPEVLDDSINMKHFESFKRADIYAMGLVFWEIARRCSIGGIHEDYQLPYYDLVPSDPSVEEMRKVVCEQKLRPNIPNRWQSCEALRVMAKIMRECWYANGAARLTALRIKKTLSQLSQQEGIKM
Chain of biotinylated avi-tagged TβRII (human) (P37173 23-567): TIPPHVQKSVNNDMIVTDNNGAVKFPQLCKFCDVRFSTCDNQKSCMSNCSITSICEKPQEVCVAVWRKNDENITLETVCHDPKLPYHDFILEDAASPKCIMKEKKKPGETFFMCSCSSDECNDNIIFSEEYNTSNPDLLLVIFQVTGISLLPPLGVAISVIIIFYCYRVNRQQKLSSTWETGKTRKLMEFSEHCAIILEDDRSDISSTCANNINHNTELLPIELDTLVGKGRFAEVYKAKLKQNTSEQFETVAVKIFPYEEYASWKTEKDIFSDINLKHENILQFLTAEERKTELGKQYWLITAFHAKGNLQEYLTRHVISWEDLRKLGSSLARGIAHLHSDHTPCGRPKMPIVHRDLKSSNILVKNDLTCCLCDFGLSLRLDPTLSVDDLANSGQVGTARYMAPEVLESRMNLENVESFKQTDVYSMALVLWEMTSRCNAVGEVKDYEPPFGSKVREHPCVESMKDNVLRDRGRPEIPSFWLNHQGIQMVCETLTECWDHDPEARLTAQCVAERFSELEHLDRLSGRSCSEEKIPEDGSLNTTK
Chain of TGF-β3:TβRII binary complex (P37173 whole entry, looked up, one chain of several): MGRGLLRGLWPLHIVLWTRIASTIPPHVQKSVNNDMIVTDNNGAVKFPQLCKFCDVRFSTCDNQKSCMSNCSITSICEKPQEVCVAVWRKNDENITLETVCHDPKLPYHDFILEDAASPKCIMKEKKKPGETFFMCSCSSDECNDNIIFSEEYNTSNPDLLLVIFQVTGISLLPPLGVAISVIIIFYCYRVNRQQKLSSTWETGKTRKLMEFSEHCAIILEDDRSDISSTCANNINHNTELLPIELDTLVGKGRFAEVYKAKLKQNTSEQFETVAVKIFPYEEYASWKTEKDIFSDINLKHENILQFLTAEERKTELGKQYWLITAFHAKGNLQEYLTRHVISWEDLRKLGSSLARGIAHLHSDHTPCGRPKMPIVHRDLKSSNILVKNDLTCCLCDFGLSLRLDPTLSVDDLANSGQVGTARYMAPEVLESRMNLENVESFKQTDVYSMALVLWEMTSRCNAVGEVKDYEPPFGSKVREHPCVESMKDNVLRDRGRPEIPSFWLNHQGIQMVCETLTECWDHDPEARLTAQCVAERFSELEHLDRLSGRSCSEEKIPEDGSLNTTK

Kd (TβRII ectodomain (human)) | dH (TβRII ectodomain (human)) | Kd (TβRI ectodomain (human) [1]) | dH (TβRI ectodomain (human) [1]) | Kd [2] | Kd [3] | stoichiometry N (TβRI ectodomain (human) [4]) | Substance
550 nM | -7.14 kcal/mol | 52.1 nM | -16.7 kcal/mol | 610 nM | 13.1 nM |  | full-length TGM (TGF-β mimic of Heligmosomoides polygyrus) (natural protein)
 |  | 25.3 nM | -18.7 kcal/mol |  | 24100 nM |  | TGM domains 1 and 2 (domain or fragment)
 |  | 61.7 nM | -4.21 kcal/mol |  |  |  | TGF-β3:TβRII binary complex (from UniProt P37173 23-166)
1150 nM | -10.7 kcal/mol |  |  | 910 nM |  |  | TGM domain 3 (domain or fragment)
 |  | 1470 nM | -17.7 kcal/mol |  | 309 nM | 1 | TGM domain 2 (domain or fragment)
